What all share (details): tags: none; hairpin, 9 bp stem, 4 nt loop
For series [1], the target named is T1, ATHP3 (AT-hook peptide 3) (mammalian (species ), UniProt P52926 74-83).
T1 chain: KRPRGRPRKW
The series can be described thus: ITC; two-site model, site 2, n2 = 1.1; ITC, UV melting and fluorescence in 1xBPE (6 mM Na2HPO4, 2 mM NaH2PO4, 1 mM Na2EDTA, pH 7.0), ITC 10 uM DNA; native MS probably in ammonium acetate (concentration not given); temperature not stated. For orientation: Isothermal titration calorimetry measures the heat released or taken up as one component is titrated into another.

Series [2] has as its target T1, ATHP3 (AT-hook peptide 3). Description: ITC; two-site model, site 1, n1 = 1.3; ITC, UV melting and fluorescence in 1xBPE (6 mM Na2HPO4, 2 mM NaH2PO4, 1 mM Na2EDTA, pH 7.0), ITC 10 uM DNA; native MS probably in ammonium acetate (concentration not given); temperature not stated.
The target in series [3] is T2, ATHP1 (AT-hook peptide 1) (mammalian (species ), UniProt P52926 26-34).
T2 chain: KRGRGRPRK
The description is as above.

Series [4] concerns the target T2, ATHP1 (AT-hook peptide 1). The series can be described thus: ITC; two-site model, site 2, n2 = 1.4; ITC, UV melting and fluorescence in 1xBPE (6 mM Na2HPO4, 2 mM NaH2PO4, 1 mM Na2EDTA, pH 7.0), ITC 10 uM DNA; native MS probably in ammonium acetate (concentration not given); temperature not stated.
For series [5], the target named is T3, ATHP2 (AT-hook peptide 2) (mammalian (species ), UniProt P52926 45-53).
T3 chain: PKRPRGRPK
Description: native IMS-MS; Hoechst 33258 in minor groove, 1:1:1 complex; ITC, UV melting and fluorescence in 1xBPE (6 mM Na2HPO4, 2 mM NaH2PO4, 1 mM Na2EDTA, pH 7.0), ITC 10 uM DNA; native MS probably in ammonium acetate (concentration not given); temperature not stated.

B1: FL876 (structured_DNA)
DNA: GGATATTGCCCCCGCAATATCC
Consider B1, for which the Ka in series [1] is 1.1e+06 M⁻¹; in series [2], 1.1e+07 M⁻¹; in series [3], 1.9e+08 M⁻¹; in series [4] it was 4e+06 M⁻¹. Besides, in series [5], the binding result is “binds”.
